From patent US9878005B2, “Method of promoting wound healing with hyodxia-induced mitogenic factor” (THE JOHNS HOPKINS UNIVERSITY, priority 2003, dated 2018) come the findings set out here.

In test [1] the test system is rat pulmonary microvascular smooth muscle cells (RPSM). Kind of test: 3H-thymidine incorporation assay (RPSM proliferation). Format: cell-based. The settings on record: for inhibition of serum-induced RPSM proliferation: preliminary experiments. The text has this:
Cell culture and ^3H-thymidine incorporation assays. Rat pulmonary microvascular smooth muscle cells (RPSM) were isolated from male Sprague-Dawley rats (150-200 g) according to a published method2. Briefly, after the pulmonary artery was flushed with phosphate buffered saline (PBS), it was infused with 2% iron oxide suspension in 0.5% agar. The air spaces were filled with agar, the subpleural margins were harvested and partially collagenase digested, and the microvessels were separated magnetically. The identity of RPSM was confirmed by characteristic appearance on phase-contrast microscopy and indirect immunofluorescent antibody staining for smooth muscle-specific isoforms of […] and myosin heavy chain. RPSM were grown in DMEM/F12 medium supplemented with 10% fetal bovine serum (FBS), 2 mM of glutamine, […] of penicillin and 100 μg/ml of streptomycin. Passage 3 to 5 cells were used in the experiments.
The cells were seeded in 24-well plates at 5×10^4/well. After synchronization with serum-free DMEM/F12 (supplemented with 1% Bovine serum albumin (BSA)) for 24 to 48 hours, the cells were treated with the specified agents and 0.1 μCi/well (or 1 μCi/well) of 3H-thymidine in the serum-free DMEM/F12 for 48 hours. After the experimental protocol was completed, the cells were rinsed with PBS twice and incubated in 10% TCA for 30 min. The cells were then washed with PBS two more times and lysed in 250 μl of the lysis buffer (1% SDS, 0.8% NaOH). 3H-thymidine incorporation was measured with a Beckman 6500 scintillation counter in 10 ml of scintillation cocktail.
On the technique in general: Dividing cells build labelled thymidine or BrdU into new DNA.

Test [2] relates to Akt phosphorylation (PI3K/Akt pathway) in RPSM. Kind of test: Western blot for pAkt and Akt in RPSM. The test is classed as cell-based, rat. Conditions: for inhibition of HIMF-activated Akt phosphorylation: 5 minutes. As for the experimental part: Western blots. The tissue collection and homogenization were performed as described before^1. HIMF was detected with 1:1000 dilution of the anti-HIMF antibody (raised in rabbit using the peptide CENKVKELLANPANYP (SEQ ID NO: 10) conjugated to keyhole limpet hemocyanin as the antigen) followed by 1:3000 dilution of goat anti-rabbit HRP-labeled antibody (BioRad, Hercules, Calif.). The specificity of the anti-HIMF antibody was preliminarily characterized with peptide competition. The peptide used as the immunogen blocked only the HIMF band and had no effect on the nonspecific bands. For phospho-Akt (pAkt) and Akt blots, RPSM were lysed in CelLytic-M (Sigma, St. Louis, Mo.) supplemented with 1 mM PMSF and 1:100 of protease inhibitor cocktail, phosphatase inhibitor cocktail 1 and 2 (Sigma, St. Louis, Mo.). 18 μg of protein in equal volume was subjected to electrophoresis in 4-20% polyacrylamide gel (BioRad, Hercules, Calif.). After transfer to nitrocellulose membrane, the membrane was first probed with anti-pAkt1/2/3(Thr308)(1:500, (Santa Cruz Biotechnology, Santa Cruz, Calif.). Then it was stripped and reprobed with anti-Akt1/2/3 (1:500, (Santa Cruz Biotechnology, Santa Cruz, Calif.).

Test [3] has as its system vascular tube formation in the Matrigel plug. Kind of test: Matrigel plug assay in vivo. Also noted: species or system mouse. The settings on record: HIMF 50 nM final, subcutaneous, 7 days; FLAG control 4.3±0.84; n=3, P<0.001. The procedure:
Matrigel plug assays: 200 μl of Matrigel mixed with FLAG or HIMF (50 nM final) was injected subcutaneously (n=3 for each group) on the back of mice. Mice were sacrificed after 7 days and the Matrigel plugs collected. Following fixation in 4% paraformaldehyde in PBS ([…], pH 7.4), 10 μm frozen sections were cut and stained either with hemotoxylin and eosin (HE) or von Willebrand factor (vWF). For the detection of vWF, anti-human vWF (1:250 dilution, Dako) and anti-rabbit IgG conjugated with FITC (1:500 dilution) were used. The positive cells were counted and expressed as cell numbers per 20× field.

The next test concerns pulmonary vasculature. Kind of test: Intact chest mouse experiment. Format: in vivo. The settings on record: intravenous injection. As for the experimental part: Intact chest mouse experiment. The animals were ventilated with 95% O2/5% CO2 and 2% isoflurane using a custom-designed, constant-flow mouse ventilator with tidal volume set to 6.7 ml/kg at 140 breaths/min. A femoral artery was cannulated for the measurement of systemic arterial pressure, which was measured with a Viggo-Spectramed transducer attached to a polygraph (Grass Instruments, model 7). Heart rate was determined from the systolic pressure pulses with a tachometer (Grass, model 7P44A), and the left jugular vein was cannulated for the administration of drugs. The animals were strapped in the supine position to a fluoroscopic table, and PAP was measured with a specially designed murine pulmonary arterial catheter attached to a pressure transducer (Schneider/Namic). Mean PAP was derived electronically, and pulmonary arterial wedge pressure was determined by recently described procedures^6. Cardiac output was measured by the thermodilution technique by injection of a known volume (20 μl) of 0.9% NaCl solution at 23° C. into the right atrium and measurement of blood temperature changes in the root of the aorta with a cardiac output computer (Cardiotherm 500, Columbus Instruments, Columbus, Ohio) equipped with a small-animal interface. A thermistor microprobe (Columbus Instruments, Fr-1) was inserted into the right carotid artery and advanced to the aortic arch, where changes in aortic blood temperature were measured.

For test [4], the system named is Akt phosphorylation in L2 cells. The experiment in a line: Akt phosphorylation in L2 cells (HIMF isolation vs mock isolation). Format: cell-based. As for the experimental part: Recombinant HIMF. The C-terminal tagged HIMF was generated by PCR and inserted into pcDNA5/FRT/TO vector using the EcoR V and Xho I restriction sites. The pcDNA5/FRT/TO vector containing the recombinant HIMF gene was then integrated in a Flp recombinase-dependent manner into the genome of the Flp-In™ T-REx™ 293 cell line using the Flp-In™ T-REx™ kit from Invitrogen (Carlsbad, Calif.). Production of recombinant HIMF was induced by tetracycline (1 μg/ml) in the 293 cells maintained in DMEM supplemented with 5% FBS, 2 mM of glutamine, 100 U/ml of penicillin and 100 μg/ml of streptomycin, 100 μg/ml of hygromycin B, and 7.5 μg/ml of blasticidin. HIMF was purified by anti-FLAG M2 antibody agarose (Sigma, St. Louis, Mo.) column chromatography from the 293 cell culture medium with FLAG (0.1 mg/ml) elution. The concentration of the HIMF protein was estimated semi-quantitatively by silver staining after SDS-PAGE using BSA as the standard. […] Therefore, the recombinant protein has 96 amino acids and has a calculated molecular weight of 10,444 Da. […] To exclude the role of possible contaminants such as insulin, a mock isolation control experiment was performed. The medium obtained from the control TREx-293 cell culture was used for the mock isolation. […]

Take `O=C(Nc1cc(C(=O)Nc2ccc(S(=O)(=O)[O-])cc2S(=O)(=O)[O-])cc(C(=O)Nc2ccc(S(=O)(=O)[O-])cc2S(=O)(=O)[O-])c1)Nc1cc(C(=O)Nc2ccc(S(=O)(=O)[O-])cc2S(=O)(=O)[O-])cc(C(=O)Nc2ccc(S(=O)(=O)[O-])cc2S(=O)(=O)[O-])c1.[Na+].[Na+].[Na+].[Na+].[Na+].[Na+].[Na+].[Na+]` [NF449, reference compound]: the “inhibition of serum-induced RPSM proliferation” value in test [1] was “inhibit”. Besides, the “inhibition of HIMF-activated Akt phosphorylation” value in test [2] (inhibitor 50 μmol/L, HIMF 5×10^−8 mol/L) is reported as “did not inhibit”.
`O=c1c(-c2ccc(O)cc2)coc2cc(O)cc(O)c12` [Genistein, reference compound]: the “inhibition of serum-induced RPSM proliferation” value in test [1] is on record as “inhibit”. The “inhibition of HIMF-activated Akt phosphorylation” value in test [2] (inhibitor 20 μmol/L, HIMF 5×10^−8 mol/L) is listed as “did not inhibit”.

B1: HIMF: hypoxia-induced mitogenic factor; recombinant C-terminal FLAG-tagged protein of 96 amino acids purified from 293 cell culture medium (protein, UniProt Q9EP95 24-111, looked up)
Resistin-like alpha: DETIEIIVENKVKELLANPANYPSTVTKTLSCTSVKTMNRWASCPAGMTATGCACGFACGSWEIQSGDTCNCLCLLVDWTTARCCQLS
modifications: C-terminal FLAG tag
notes: hypoxia-induced mitogenic factor; recombinant C-terminal FLAG-tagged protein of 96 amino acids purified from 293 cell culture medium
In the case of B1, the “vascular tube formation in the Matrigel plug” value in test [3] is given as 17.7±1.37 /×20 field. Also, in test [1] (HIMF 3.3×10^−9 to 3.3×10^−8 mol/L), the “proliferation of RPSM (3H-thymidine incorporation)” value is listed as “dose-dependently increased”. In the test on pulmonary vasculature, the “pulmonary arterial pressure (PAP)” value is on record as “increased”; the “pulmonary vascular resistance (PVR)” value is listed as “increased”; the “pulmonary vasoconstrictor potency versus endothelin-1, angiotensin II, or serotonin (molar dose-response curves)” value is reported as “more potent”. Besides, in test [4] (HIMF isolation, mock isolation had no effect), the “Akt phosphorylation in L2 cells” value is reported as “stimulated”. Further, the “activation of Akt by the recombinant protein” value in test [4] (L2 cells, preliminary experiments) was “activated”. Further, in test [2] (HIMF 5×10^−8 mol/L), the “Akt activation sustained through” value is no less than 60 min, the “activation of phosphorylation of Akt” value was “strongly activated” and the “time of peak Akt activation (phosphorylation)” value is 5 min. Also, the “activation of Akt by the recombinant protein” value in test [2] (preliminary experiments) is listed as “activated”.
